Data on one molecule can be found in US20150315292A1 (VANDERBILT UNIVERSITY, published 2015).

Assay [1] has as its target T1, human fXII with the EGF2 domain replaced with the corresponding domain from HGFA (human, UniProt P00748 20-173; Q04756 241-279; P00748 211-615, limits assumed).
T1 construct: Expressed in human fibroblasts (HEK293) and blotted from conditioned medium; also called fXII/HGFA chimera for the EGF2 domain
T1 sequence (looked up): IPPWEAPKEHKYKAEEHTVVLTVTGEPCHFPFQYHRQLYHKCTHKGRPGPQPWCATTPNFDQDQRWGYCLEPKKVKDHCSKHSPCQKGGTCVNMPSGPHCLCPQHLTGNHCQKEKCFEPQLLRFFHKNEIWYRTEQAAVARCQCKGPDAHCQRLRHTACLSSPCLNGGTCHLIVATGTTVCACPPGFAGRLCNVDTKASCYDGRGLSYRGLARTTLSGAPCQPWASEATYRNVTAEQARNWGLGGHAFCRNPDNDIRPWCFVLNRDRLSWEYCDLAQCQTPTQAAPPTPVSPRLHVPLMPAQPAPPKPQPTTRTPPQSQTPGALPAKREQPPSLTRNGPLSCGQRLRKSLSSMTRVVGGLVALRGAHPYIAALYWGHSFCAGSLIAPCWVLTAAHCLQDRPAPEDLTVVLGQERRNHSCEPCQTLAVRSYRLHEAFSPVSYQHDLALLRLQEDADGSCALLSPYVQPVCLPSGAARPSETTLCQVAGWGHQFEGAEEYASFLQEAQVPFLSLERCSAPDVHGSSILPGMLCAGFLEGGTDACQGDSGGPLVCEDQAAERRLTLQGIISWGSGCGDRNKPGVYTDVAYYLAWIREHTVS
The assay is described as follows: Western blot after SDS-PAGE. The text has this: (§1) AB043 and AB042 both recognize baboon and human fXII, indicating they can be used for studies in baboon thrombosis models. […] Chimeras in which individual fXII domains were replaced with those of HGFA were expressed in human fibroblasts.
(In western blotting, separated proteins are transferred to a membrane and probed.)

In assay [2] the target is T2, human fXII with the kringle domain replaced with the corresponding domain from HGFA (human, UniProt P00748 20-216; Q04756 286-367; P00748 296-615, limits assumed).
T2 construct: Expressed in human fibroblasts (HEK293) and blotted from conditioned medium; also called fXII/HGFA kringle domain chimera; KNG
T2 sequence (looked up): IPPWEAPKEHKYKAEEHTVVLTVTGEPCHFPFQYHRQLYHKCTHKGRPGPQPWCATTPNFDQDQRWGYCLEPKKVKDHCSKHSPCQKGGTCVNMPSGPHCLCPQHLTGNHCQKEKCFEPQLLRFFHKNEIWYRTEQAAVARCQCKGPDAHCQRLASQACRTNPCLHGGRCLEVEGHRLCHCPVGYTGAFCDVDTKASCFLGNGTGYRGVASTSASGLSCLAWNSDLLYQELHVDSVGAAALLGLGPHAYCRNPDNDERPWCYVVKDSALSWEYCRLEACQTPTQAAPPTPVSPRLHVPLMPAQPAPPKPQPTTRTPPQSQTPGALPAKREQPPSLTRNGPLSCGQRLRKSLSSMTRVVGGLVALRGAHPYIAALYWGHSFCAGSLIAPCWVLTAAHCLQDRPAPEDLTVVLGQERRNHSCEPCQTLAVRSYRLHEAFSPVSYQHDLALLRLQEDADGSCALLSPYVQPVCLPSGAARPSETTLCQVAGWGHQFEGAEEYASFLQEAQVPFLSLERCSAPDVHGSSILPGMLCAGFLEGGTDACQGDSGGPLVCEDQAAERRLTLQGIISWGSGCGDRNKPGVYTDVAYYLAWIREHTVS
The assay is described as follows: Western blot after SDS-PAGE.
Description: as §1

B1: monoclonal anti-human fXII antibody AB042 (antibody, V domains shown)
VH: EVQLQQSGAELVRPGASVKLSCTASGFNIKDDYMHWVKQRPEQGLEWIGWIDPENGDTEYASKFQGKATITSDTSSNTAYLQLSSLTSEDTAVYYCTENYYGSSFFAYWGQGTLVTVSA
VL: DIVMTQATPSVPVTPGESVSISCRSSKSLLHSNGITYLYWFLQRPGQSPQRLIYYMSNLASGVPDRFSGRGSGTDFTLRISRVEAEDVGVYYCMQSLEYPYTFGGGTKLEIKR
notes: Mouse hybridoma IgG raised in fXII knockout mice immunized with human fXII
As to B1, the binding result in assay [1] and in assay [2] was “no binding” each time.
